Consider 16 molecules from patent US20240400711A1 (SOUND BIOPHARMACEUTICALS, published 2024).

B1: FTL004-hu-9 (antibody, human IgG1, kappa, V domains shown)
VH: QVQLVQSGAEVKKPGASVKVSCKASGYTFTDYNVHWIRQAPGQGLEWIGYFYPRNGATHYNQKFTGRATLTVDTSTSTAYMEISSLRSEDTAVYFCARGETPGTFPYWGQGTLVTVSS
VL: EIVLTQSPATLSLSPGERATLSCRASESVDNFGITFMHWYQQKPGQAPRLLIYRASNLESGIPARFSGSGSRTDFTLTISSLEPEDFAVYYCQQSSKDPRTFGQGTKLEIKR
notes: also called FLT004-hu-9; FTL004-hum-9
B2: FTL004-hu-11 (antibody, human IgG1, kappa, V domains shown)
VH: B1 VH
VL: DIQLTQSPSSLSASVGDRVTITCRASESVDNFGITFMHWYQQKPGKAPKLLIYRASNLESGVPSRFSGSGSRTDFTLTISSLQPEDFATYYCQQSSKDPRTFGQGTKLEIKR
notes: also called FLT004-hu-11; FTL004-hum-11
B3: FTL004-hu-4 (antibody, human IgG1, kappa, V domains shown)
VH: QVQLVQSGSELKKPGASVKVSCKASGYTFTDYNVHWIRQAPGQGLEWIGYFYPRNGATHYAQGFTGRAVLSADTSVSTAYLQISSLKAEDTAVYYCARGETPGTFPYWGQGTLVTVSS
VL: B1 VL
notes: also called FLT004-hu-4; FTL004-hum-4
B4: FTL004-hu-16 (antibody, human IgG1, kappa, V domains shown)
VH: EVQLVQSGAEVKKPGATVKISCKASGYTFTDYNVHWIQQAPGKGLEWIGYFYPRNGATHYAEKFQGRVTLTADTSTDTAYMELSSLRSEDTAVYYCARGETPGTFPYWGQGTLVTVSS
VL: B1 VL
notes: also called FLT004-hu-16; FTL004-hum-16
B5: FTL004-hu-12 (antibody, human IgG1, kappa, V domains shown)
VH: B1 VH
VL: B2 VL with R24Q, S60T, L77F, F87I
notes: also called FLT004-hu-12; FTL004-hum-12
B6: FTL004-hu-18 (antibody, human IgG1, kappa, V domains shown)
VH: B4 VH with A61N, E62Q, Q65T, V68A, L83I, Y95F
VL: B2 VL with R24Q, S60T, L77F, F87I
notes: also called FLT004-hu-18; FTL004-hum-18
B7: FTL004-hu-17 (antibody, human IgG1, kappa, V domains shown)
VH: B4 VH with A61N, E62Q, Q65T, V68A, L83I, Y95F
VL: B2 VL
notes: also called FLT004-hu-17; FTL004-hum-17
B8: FTL004-hu-15 (antibody, human IgG1, kappa, V domains shown)
VH: B4 VH with A61N, E62Q, Q65T, V68A, L83I, Y95F
VL: B1 VL
notes: also called FLT004-hu-15; FTL004-hum-15
B9: FTL004-hu-3 (antibody, human IgG1, kappa, V domains shown)
VH: B3 VH with A61N, G63K, Y95F
VL: B1 VL
notes: also called FLT004-hu-3; FTL004-hum-3
B10: FTL004-hu-5 (antibody, human IgG1, kappa, V domains shown)
VH: B3 VH with A61N, G63K, Y95F
VL: B2 VL
notes: also called FLT004-hu-5; FTL004-hum-5
B11: FTL004-hu-2 (antibody, human IgG1, kappa, V domains shown)
VH: B3 VH
VL: DIVLTQSPASLAVSPGQRATITCRASESVDNFGITFMHWYQQKPGQPPKLLIYRASNLESGVPARFSGSGSRTDFTLTINPVEANDTANYYCQQSSKDPRTFGQGTKLEIKR
notes: also called FLT004-hu-2; FTL004-hum-2
B12: FTL004-hu-7 (antibody, human IgG1, kappa)
heavy: not shown
light: DIVLTQSPASLAVSPGQRATITCRASESVDNFGITFMHWYQQKPGQPPKLLIYRASNLESGVPARFSGSGSRTDFTLTINPVEANDTANYYCQQSSKDPRTFGQGTKLEIKRTVAAPSVFIFPPSDEQLKSGTASVVCLLNNFYPREAKVQWKVDNALQSGNSQESVTEQDSKDSTYSLSSTLTLSKADYEKHKVYACEVTHQGLSSPVTKSFNRGEC
notes: Fc before engineering; also called FLT004-hu-7; FTL004-hum-7
B13: FTL004-hu-8 (antibody, human IgG1, kappa, V domains shown)
VH: B1 VH with N61A, T65Q, A68V, L70M, I83L, F95Y
VL: B11 VL
notes: also called FLT004-hu-8; FTL004-hum-8
B14: FTL004-hu-13 (antibody, human IgG1, kappa, V domains shown)
VH: B4 VH with A61N, E62Q, Q65T, V68A, L83I, Y95F
VL: B11 VL
notes: also called FLT004-hu-13; FTL004-hum-13
B15: FTL004-hu-1 (antibody, human IgG1, kappa)
heavy: not shown
light: B12 light
notes: human IgG1 type constant regions, Fc before engineering; also called FLT004-hu-1; FTL004-hum-1
B16: FTL004-6 (antibody, human IgG1, kappa)
heavy: not shown
light: DIQLTQSPSSLSASVGDRVTITCQASESVDNFGITFMHWYQQKPGKAPKLLIYRASNLETGVPSRFSGSGSRTDFTFTISSLQPEDIATYYCQQSSKDPRTFGQGTKLEIKRTVAAPSVFIFPPSDEQLKSGTASVVCLLNNFYPREAKVQWKVDNALQSGNSQESVTEQDSKDSTYSLSSTLTLSKADYEKHKVYACEVTHQGLSSPVTKSFNRGEC

Residue numbers refer to the chain shown, from its start.

The term Kd denotes the equilibrium constant for the complex coming apart. For orientation: koff means the rate constant with which the complex falls apart. What is called kon is a measure of how fast the partners come together.

The first experiment has as its target T1, recombinant extracellular domain of CD38 (human, UniProt P28907 43-300).
T1 construct: also called CD38 extracellular domain; AtaGenix ATMP00140HU
Put plainly: Biacore SPR.
On to B1, for which the Kd stood at 3.04 nM, the koff came out at 0.000699 s⁻¹ and the kon worked out at 230000 M⁻¹ s⁻¹.
The like results for B2 were, in that order, 2.87 nM, 0.000848 s⁻¹ and 296000 M⁻¹ s⁻¹.
The like results for B3 were, in that order, 10.5 nM, 0.00313 s⁻¹ and 297000 M⁻¹ s⁻¹.
Regarding B4, the Kd was determined as 25.2 nM, the koff came to 0.00459 s⁻¹ and the kon was 182000 M⁻¹ s⁻¹.
For B5 the same measures were 3.54 nM, 0.00083 s⁻¹ and 234000 M⁻¹ s⁻¹.
For B6 the same measures were 4.16 nM, 0.000788 s⁻¹ and 189000 M⁻¹ s⁻¹.
For the molecule B7, the Kd worked out at 3.09 nM, the koff worked out at 0.000848 s⁻¹ and the kon came to 275000 M⁻¹ s⁻¹.
For B8 the same measures were 3.66 nM, 0.000784 s⁻¹ and 214000 M⁻¹ s⁻¹.
With B9, the Kd was 1.5 nM, the koff is 0.00052 s⁻¹ and the kon worked out at 347000 M⁻¹ s⁻¹.
For the molecule B10, the Kd was determined as 1.65 nM, the koff came out at 0.000686 s⁻¹ and the kon is 415000 M⁻¹ s⁻¹.
The like results for B11 were, in that order, 8.3 nM, 0.00285 s⁻¹ and 344000 M⁻¹ s⁻¹.
The like results for B12 were, in that order, 2.4 nM, 0.000766 s⁻¹ and 320000 M⁻¹ s⁻¹.
For B13 the same measures were 8.39 nM, 0.00257 s⁻¹ and 307000 M⁻¹ s⁻¹.
In the case of B14, the Kd stood at 2.78 nM, the koff was 0.000853 s⁻¹ and the kon is 307000 M⁻¹ s⁻¹.
With B15, the Kd was 1.42 nM.

Another experiment concerns the target CD38 on CD38-positive cells (human, UniProt P28907 1-300). As to the kind of experiment: cell-based or functional assay.
On to B16, for which the “Rate of apoptosis (%), Daudi cells” value was determined as 36%; the “Rate of apoptosis (%), Raji cells” value is 13.9%; the “Rate of apoptosis (%), Romas cells” value came to 57%; the “Rate of apoptosis (%), SU-DHL-6 cells” value is 15.1%.
For B12 the same measures were 34.5%, 12.1%, 31.1% and 19.9%.
In the case of B15, the “Rate of apoptosis (%), Daudi cells” value was 36.9%; the “Rate of apoptosis (%), Raji cells” value came to 14.8%; the “Rate of apoptosis (%), Romas cells” value is 62.7%; the “Rate of apoptosis (%), SU-DHL-6 cells” value was 20.2%.
